Measurements as given in patent publication US20210228731A1 (Novartis, published 2021).

T1: Rat cKIT D1-5, C-terminal mFc (rat)
T1 construct: also called rat cKIT-mFc
T1 chain: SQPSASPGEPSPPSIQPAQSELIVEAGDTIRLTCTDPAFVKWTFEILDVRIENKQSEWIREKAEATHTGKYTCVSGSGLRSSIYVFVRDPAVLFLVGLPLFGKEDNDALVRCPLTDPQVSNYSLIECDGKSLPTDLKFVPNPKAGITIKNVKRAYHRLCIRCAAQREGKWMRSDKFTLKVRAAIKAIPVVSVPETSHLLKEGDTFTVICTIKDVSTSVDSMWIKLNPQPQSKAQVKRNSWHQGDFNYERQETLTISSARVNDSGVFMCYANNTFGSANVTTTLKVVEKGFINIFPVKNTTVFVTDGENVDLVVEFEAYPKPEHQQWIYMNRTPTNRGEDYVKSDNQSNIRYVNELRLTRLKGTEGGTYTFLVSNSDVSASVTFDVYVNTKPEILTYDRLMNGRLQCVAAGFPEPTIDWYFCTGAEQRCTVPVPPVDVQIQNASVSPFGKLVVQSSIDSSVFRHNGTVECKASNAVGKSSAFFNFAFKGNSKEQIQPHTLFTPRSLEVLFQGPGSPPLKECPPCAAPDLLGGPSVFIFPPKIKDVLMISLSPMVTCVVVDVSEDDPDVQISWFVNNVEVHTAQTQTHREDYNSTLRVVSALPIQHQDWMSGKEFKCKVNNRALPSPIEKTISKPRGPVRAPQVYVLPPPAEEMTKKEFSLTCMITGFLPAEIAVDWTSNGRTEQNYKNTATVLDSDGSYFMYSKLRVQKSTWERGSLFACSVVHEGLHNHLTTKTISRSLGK

T2: Cynomolgus monkey cKIT D1-5 (cynomolgus monkey, UniProt P10721 26-524 (human entry))
T2 construct: also called cyno cKIT ECD
T2 chain: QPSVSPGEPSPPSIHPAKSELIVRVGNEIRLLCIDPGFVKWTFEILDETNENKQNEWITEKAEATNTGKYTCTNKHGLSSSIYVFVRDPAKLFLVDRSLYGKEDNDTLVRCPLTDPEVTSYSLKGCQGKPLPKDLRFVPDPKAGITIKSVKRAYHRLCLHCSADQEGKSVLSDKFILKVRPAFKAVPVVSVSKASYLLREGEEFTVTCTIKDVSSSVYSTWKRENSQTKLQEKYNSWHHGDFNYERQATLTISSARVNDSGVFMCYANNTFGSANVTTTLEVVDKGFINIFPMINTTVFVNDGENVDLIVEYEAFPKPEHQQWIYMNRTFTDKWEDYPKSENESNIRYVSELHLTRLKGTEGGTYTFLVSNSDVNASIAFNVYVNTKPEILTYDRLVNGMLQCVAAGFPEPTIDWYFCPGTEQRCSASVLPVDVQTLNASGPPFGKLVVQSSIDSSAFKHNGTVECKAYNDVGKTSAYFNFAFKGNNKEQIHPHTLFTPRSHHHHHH

T3: Mouse cKIT ECD, C-terminal 6x His (Sino Biological Inc, catalog number 50530-M08H) (mouse, UniProt P05532 25-527)
T3 construct: extracellular domain
T3 sequence: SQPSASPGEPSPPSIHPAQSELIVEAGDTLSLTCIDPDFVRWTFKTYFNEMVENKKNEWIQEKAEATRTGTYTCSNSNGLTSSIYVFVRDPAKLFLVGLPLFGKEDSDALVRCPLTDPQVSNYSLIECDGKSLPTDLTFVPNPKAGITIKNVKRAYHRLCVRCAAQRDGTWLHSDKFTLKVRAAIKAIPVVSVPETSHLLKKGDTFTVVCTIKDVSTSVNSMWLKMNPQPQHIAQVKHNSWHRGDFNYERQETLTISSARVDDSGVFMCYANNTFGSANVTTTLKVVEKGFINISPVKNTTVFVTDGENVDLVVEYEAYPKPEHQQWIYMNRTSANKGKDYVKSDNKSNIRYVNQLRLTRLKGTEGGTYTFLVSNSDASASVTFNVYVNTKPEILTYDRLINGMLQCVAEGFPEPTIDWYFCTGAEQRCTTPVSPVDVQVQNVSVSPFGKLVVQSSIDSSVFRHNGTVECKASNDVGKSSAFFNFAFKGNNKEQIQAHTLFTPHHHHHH


Key:
[1] = target: T1, Rat cKIT D1-5, C-terminal mFc; experiment: reactivity to rat cKIT (method not given; Example 4 describes SPR)
[2] = target: T4, Human cKIT D1-5 (extracellular domain) (human, UniProt P10721 26-524); experiment: SET per the column head (Example 4 describes SPR, Biacore: antibody captured by anti-human Fc, cKIT ECD in solution)
T4 construct: also called human cKIT ECD; full-length cKIT ECD

[3] = target: T2, Cynomolgus monkey cKIT D1-5; experiment: as above
[4] = target: T3, Mouse cKIT ECD, C-terminal 6x His (Sino …); experiment: reactivity to mouse cKIT (method not given; Example 4 describes SPR)

T4 sequence (P10721 other isoform, or with tags, fused parts or gaps): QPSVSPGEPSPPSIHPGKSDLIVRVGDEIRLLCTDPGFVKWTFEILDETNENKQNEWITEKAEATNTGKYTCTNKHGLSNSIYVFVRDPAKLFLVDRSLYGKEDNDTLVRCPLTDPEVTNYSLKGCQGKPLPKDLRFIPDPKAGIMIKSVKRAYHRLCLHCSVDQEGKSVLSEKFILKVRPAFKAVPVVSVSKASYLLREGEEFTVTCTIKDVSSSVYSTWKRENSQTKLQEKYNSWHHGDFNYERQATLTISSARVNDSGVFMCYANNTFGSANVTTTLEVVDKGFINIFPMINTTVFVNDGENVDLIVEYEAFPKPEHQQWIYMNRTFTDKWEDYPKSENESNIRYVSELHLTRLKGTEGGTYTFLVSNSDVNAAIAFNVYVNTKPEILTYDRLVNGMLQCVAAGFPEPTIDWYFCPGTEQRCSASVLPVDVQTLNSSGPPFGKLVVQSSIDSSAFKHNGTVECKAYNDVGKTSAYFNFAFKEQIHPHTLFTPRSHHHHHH

Binder | binding result [1] | Kd [2] | Kd [3] | binding result [4]
Anti-cKIT Ab1 (antibody, human IgG1, kappa, V domains shown, Full-length human IgG1, kappa light chain) VH: QVQLVQSGAEVKKPGSSVKVSCKASGGTFSSYAISWVRQAPGQGLEWMGVIFPAEGAPGYAQKFQGRVTITADESTSTAYMELSSLRSEDTAVYYCARGGYISDFDVWGQGTLVTVSS VL: DIQMTQSPSSLSASVGDRVTITCRASQSISNYLAWYQQKPGKAPKLLIYDASSLQSGVPSRFSGSGSGTDFTLTISSLQPEDFATYYCQQYYYESITFGQGTKVEIKR | no binding | 0.094 nM | 0.17 nM | no binding
Anti-cKIT Ab2 (antibody, human IgG1, kappa, V domains shown, Full-length human IgG1, kappa light chain) VH: QVQLVQSGAEVKKPGSSVKVSCKASGGTFSSHALSWVRQAPGQGLEWMGGIIPSFGTADYAQKFQGRVTITADESTSTAYMELSSLRSEDTAVYYCARGLYDFDYWGQGTLVTVSS VL: DIQMTQSPSSLSASVGDRVTITCRASQDISQDLAWYQQKPGKAPKLLIYDASSLQSGVPSRFSGSGSGTDFTLTISSLQPEDFAVYYCQQYYYLPSTFGQGTKVEIKR | no binding | 0.007 nM | 0.01 nM | no binding

Results, then the binder that gave them:

binding result [1] | Kd [2] | Kd [3] | binding result [4] | Binder
binds | 2.4 nM | 0.14 nM |  | Anti-cKIT Ab4 (antibody, human IgG1, lambda, V domains shown, Full-length human IgG1, lambda light chain) VH: QVQLQQSGPGLVKPSQTLSLTCAISGDSVSTNSAAWNWIRQSPSRGLEWLGRIYYRSQWLNDYAVSVKSRITINPDTSKNQFSLQLNSVTPEDTAVYYCARQLTYPYTVYHKALDVWGQGTLVTVSS VL: DIELTQPPSVSVSPGQTASITCSGDNLGDQYVSWYQQKPGQAPVLVIYDDTDRPSGIPERFSGSNSGNTATLTISGTQAEDEADYYCQSTDSKSVVFGGGTKLTVLG
binds | 0.11 nM | 0.18 nM |  | Anti-cKIT Ab5 (antibody, human IgG1, lambda, V domains shown, Full-length human IgG1, lambda light chain) VH: QVQLVQSGAEVKKPGESLKISCKGSGYSFTNYWIAWVRQMPGKGLEWMGIIYPSNSYTLYSPSFQGQVTISADKSISTAYLQWSSLKASDTAMYYCARVPPGGSISYPAFDHWGQGTLVTVSS VL: DIELTQPPSVSVSPGQTASITCSGDNIGSIYASWYQQKPGQAPVLVIYRDNKRPSGIPERFSGSNSGNTATLTISGTQAEDEADYYCSVTDMEQHSVFGGGTKLTVLG
no binding |  | 0.052 nM | no binding | Anti-cKIT Ab3 (antibody, human IgG1, kappa, V domains shown, Full-length human IgG1, kappa light chain) VH: QVQLVQSGAEVKKPGSSVKVSCKASGGTFSSYAISWVRQAPGQGLEWMGTIGPFEGQPRYAQKFQGRVTITADESTSTAYMELSSLRSEDTAVYYCARGGYISDFDVWGQGTLVTVSS VL: DIQMTQSPSSLSASVGDRVTITCRASQSISNYLAWYQQKPGKAPKLLIYDASSLQSGVPSRFSGSGSGTDFTLTISSLQPEDFATYYCQQYYYESITFGQGTKVEIKR
